# Source: the supplement of paper PMC6755084
# B1: F1*; the commonest letter at each place (parent)
# chain: GAGACCGCAACTGAAAAGTTGTTATCACTTGTCGTAAGACACTTTGGATGGGTTGAAGTTCTGCACGTAGAAGCAAAAGGC
# Variants of: B1
# Test: fraction ligated after 30 min (ligated reads / total reads); higher = more ligase activity
# Settings: with F1*sub RNA substrate (template-directed ligation), 42 °C
# Summary of the method: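 Oligo-pool templates underwent PCR amplification, T7 transcription and gel purification to yield ribozyme variants. Gel-separated ligated and unligated bands were converted to complementary DNA with barcoded primers and sequenced on a MiSeq, keeping core bases of quality ≥20. The ratio of ligated reads to total reads gave the fraction ligated for every variant.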
row,Variant,fraction ligated
1,A36C G55A,0.827
2,T23A A48T,0.68
3,C26A A56G,0.096
4,T23C G31C,0.666
5,A24T T30A,0.67
6,A24T A48C,0.499
7,C26T A37C,0.841
8,G31A G34T,0.796
9,C28A G31C,0.831
10,T23C G55C,0.469
11,T35A A48C,0.752
12,A36G C42T,0.849
13,G31T T49A,0.146
14,G55A A56T A57C,0.0139
15,G55A A56G A57G,0.338
16,C42T A56T,0.811
17,G31A C42T,0.839
18,T44C T45C,0.747
19,A24T A37G,0.792
20,G55T A56C,0.014
21,C33T G38T,0.847
22,C33T G38C,0.835
23,C40T T49G,0.812
24,C28T A48G,0.788

row,Variant,fraction ligated
1,A24C A56T,0.0488
2,G55C A57G,0.773
3,C42A G47T,0.704
4,G47C A57G,0.0599
5,C42G T45A,0.796
6,A39T T49G,0.769
7,T32C A48G,0.75
8,A27T A41C,0.766
9,A24C A27T,0.668
10,T43G T44G,0.809
11,A41G G46T,0.767
12,A24G C28A,0.719
13,A24G C28G,0.701
14,T43G G47C,0.447
15,A39G G46C,0.781
16,C28A T29A,0.798
17,A39C A41T,0.751
18,T23A A37C,0.82
19,T29G G38A,0.844
20,G38A C42A,0.854
21,G34C T43G,0.809
22,A37T C42G,0.849
23,T30C A57T,0.769
24,C26T A39G,0.819

row,Variant,fraction ligated
1,G34T A36G,0.834
2,A27T T49A,0.76
3,T49C A56G,0.0622
4,T32A G34C,0.809
5,T25G G38A,0.676
6,T30A A36G,0.832
7,C40G G50A,0.262
8,A37G T43A,0.867
9,T25A T32A,0.094
10,T29C T45A,0.554
11,C42G A56C,0.801
12,G47T T49G,0.261
13,C42A A57C,0.797
14,T49G A56T,0.191
15,G50C A56G,0.0166
16,A41T C42T,0.848
17,T45G G50C,0.0186
18,C33A A57G,0.868
19,C28A G55A,0.793
20,C26T A56T,0.867
21,A41C A57C,0.767
22,G38T T49C,0.204
23,A37C A48G,0.795
24,T44G T45G,0.35

row,Variant,fraction ligated
1,A37C T43A,0.832
2,A27T T45A,0.783
3,C33G G50A,0.253
4,T29C G31A,0.796
5,T32G A48T,0.143
6,G38C A57T,0.828
7,A24G T44G,0.791
8,C26A T45C,0.0795
9,A24T C28A,0.492
10,T30A T35C,0.816
11,G34T A48T,0.801
12,G38T A41C,0.785
13,A57C,0.814
14,C33T G55C,0.82
15,G31T G38A,0.802
16,T30A G50T,0.57
17,C26A G47T,0.235
18,T29G C33A,0.85
19,T29A G31A,0.844
20,A24C A39T,0.197
21,T30A G34T,0.802
22,T29A A36C,0.855
23,T35A A57G,0.847
24,C26G T43A,0.783

row,Variant,fraction ligated
1,A24C T45G,0.0118
2,T32G C40A,0.825
3,T25A G47A,0.462
4,T23G C42T,0.838
5,T23G C42A,0.835
6,G46A A57T,0.803
7,T32A C33T,0.847
8,T25A A37T,0.776
9,G31T C33T,0.777
10,T32C G47T,0.103
11,G46A G47T,0.115
12,G34T G55C,0.796
13,G34T G55T,0.81
14,T30G A39G,0.841
15,C42A A48T,0.803
16,G38T A57T,0.812
17,C40G C42A,0.82
18,T29C A37T,0.833
19,T29C A37C,0.828
20,G47A A57C,0.703
21,G47A A57T,0.77
22,C33G A37C,0.824
23,C42G T43A,0.856
24,A27T G47T,0.0847

row,Variant,fraction ligated
1,T25A T29A,0.582
2,T32C A37C,0.79
3,G31C C33A,0.798
4,G47C A48G,0.122
5,T23G G46T,0.759
6,A37C T44A,0.84
7,T30C G47T,0.358
8,A27T G46T,0.757
9,A27T A37T,0.808
10,C26G A36C,0.0567
11,A41C C42A,0.844
12,C33A G38T,0.86
13,T43G G55C,0.247
14,T35C,0.839
15,G46A A56C,0.483
16,A39G A57G,0.823
17,T35G C42A,0.846
18,T35A A37C,0.872
19,T23C A41T,0.808
20,T30C T44C,0.803
21,T23A G38A,0.809
22,T35C G50A,0.608
23,T25G T30A,0.674
24,G46T,0.791

row,Variant,fraction ligated
1,C33G G46C,0.779
2,T25G C42G,0.737
3,G34C A36T,0.832
4,C28G A36G,0.812
5,A41C T43G,0.76
6,T32A G50C,0.0632
7,A24T C33A,0.214
8,A39C A56T,0.771
9,A39C A56G,0.779
10,T35C G55C,0.796
11,C26A T32C,0.545
12,T25A G50A,0.225
13,A27C G50T,0.37
14,A27G A48C,0.504
15,T35C A56T,0.796
16,C40T G46C,0.79
17,C28G C42G,0.851
18,T25A T49A,0.721
19,G34T G50C,0.396
20,G55T A56G A57C,0.0609
21,T23C T35C,0.818
22,A24C C28G,0.742
23,C40T A57G,0.839
